We go through 12 sequences from the Immune Epitope Database (IEDB).

pIC50: −log10 of the molar value.

Among the targets are HLA-B*57:01; HLA-A*02:01; HLA-B*07:02; HLA-B*44:03; HLA-B*53:01.
Experiment in all cases: IEDB peptide-MHC binding, purified MHC/competitive/radioactivity; ≥ and ≤ were set here for values at or beyond the usual limits of such assays
What all share (conditions): source organism: Bordetella pertussis

As a reminder, the pIC50 is −log10 of the IC50, conventionally taken in molar units. AAPAAHADW: the pIC50 with HLA-B*57:01 is 4.70.

For the sequence WLTWLAILA, in the experiment with HLA-A*02:01, the pIC50 is 4.40.

For the sequence RVTVSGGSL, the pIC50 with HLA-B*07:02 is 4.84.

In the case of IENTAKLSG, in the experiment with HLA-B*44:03, the pIC50 was 4.35.

For AAMQGAVVH, in the experiment with HLA-B*44:03, the pIC50 is at most 4.11.

Turning to GLTDGVSRI, in the experiment with HLA-A*02:01, the pIC50 was 4.16.

Take LNDSKITMG: the pIC50 with HLA-B*53:01 was at most 4.11.

Turning to IAHRTELRG, the pIC50 with HLA-B*57:01 is 4.18.

Regarding LVYYESIAY, in the experiment with HLA-B*53:01, the pIC50 is 4.92.

As to SPQPIRATV, the pIC50 in the experiment with HLA-B*07:02 was 6.83.

Take SEAMAAWSE: the pIC50 with HLA-B*44:03 was 5.12.

For HSLYASYEY, the figures for the pIC50 in the experiment with HLA-B*53:01 and with HLA-B*57:01 were 4.37 and 6.93, respectively.
